Data: IntAct's records for PubMed 21763481

B1: B9 domain-containing protein 2 (Mus musculus), Q3UK10 (parent)
chain: MAEVHVIGQIIGATGFSESSLFCKWGIHTGAAWKLLSGVREGQTQVDTPQIGDMAYWSHPIDLHFATKGLQGWPRLHLQVWSQDSFGRCQLAGYGFCHVPSSPGTHQLDCPTWRPLGSWREQLARAFVGGGPQLLHADTIYSGADRYRLHTAAGGTVHLGIGLLLRHFDRYGVEC
partner: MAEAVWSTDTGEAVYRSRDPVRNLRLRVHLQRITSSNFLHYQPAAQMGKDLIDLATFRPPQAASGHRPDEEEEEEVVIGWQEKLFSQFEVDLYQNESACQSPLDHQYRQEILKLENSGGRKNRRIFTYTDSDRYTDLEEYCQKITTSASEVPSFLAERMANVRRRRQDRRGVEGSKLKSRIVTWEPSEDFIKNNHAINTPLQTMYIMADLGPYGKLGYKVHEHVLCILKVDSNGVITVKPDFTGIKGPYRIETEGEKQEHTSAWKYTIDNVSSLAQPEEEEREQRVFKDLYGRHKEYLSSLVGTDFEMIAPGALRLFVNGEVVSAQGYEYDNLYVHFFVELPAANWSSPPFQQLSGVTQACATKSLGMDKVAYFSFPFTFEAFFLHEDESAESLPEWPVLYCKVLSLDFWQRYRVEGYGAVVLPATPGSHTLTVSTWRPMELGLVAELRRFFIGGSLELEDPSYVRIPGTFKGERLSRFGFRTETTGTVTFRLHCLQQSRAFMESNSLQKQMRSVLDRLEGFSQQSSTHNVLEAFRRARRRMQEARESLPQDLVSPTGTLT
B2: B9 domain-containing protein 2 (Mus musculus), Q3UK10 (parent)
chain: B1 chain
partner: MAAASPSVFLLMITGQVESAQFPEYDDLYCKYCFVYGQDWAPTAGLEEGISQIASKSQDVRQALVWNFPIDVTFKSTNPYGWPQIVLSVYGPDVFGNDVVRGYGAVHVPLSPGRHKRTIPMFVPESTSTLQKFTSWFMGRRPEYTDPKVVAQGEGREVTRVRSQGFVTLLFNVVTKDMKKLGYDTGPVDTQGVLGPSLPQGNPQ

Variants of: B1
Details: with mks1_mouse Mks1, Q5SW45

| effect of a mutation on the interaction | Variant |
| --- | --- |
| disrupting interaction | S101R |

Variants of: B2
Details: with b9d1_mouse B9d1, Q9R1S0

| effect of a mutation on the interaction | Variant |
| --- | --- |
| with no effect | S101R |
